Reference: article doi:10.1101/2022.06.24.497440

Key:
[1] = biological target: fluorescently labeled CaV1.2 IQ peptide Y1657D (UniProt P15381); test: fluorescence polarisation
[2] = biological target: CaV1.2 IQ motif peptide Y1657D (UniProt P15381); test: ITC
[3] = biological target: CaV1.2 IQ motif peptide F1658D (UniProt P15381); test: ITC
[4] = biological target: CaV1.2 IQ motif peptide F1658A (UniProt P15381); test: ITC
[5] = biological target: CaV1.2 IQ motif peptide Y1649A (UniProt P15381); test: ITC
[6] = biological target: CaV1.2 IQ motif peptide I1654A (UniProt P15381); test: ITC
[7] = biological target: fluorescently labeled CaV1.2 IQ peptide K1662E (UniProt P15381); test: fluorescence polarisation
[8] = biological target: fluorescently labeled CaV1.2 IQ peptide, wildtype (UniProt P15381); test: fluorescence polarisation

Row | Substance | Kd [1] [nM] | Kd [2] [nM] | Kd [3] [nM] | Kd [4] [nM] | Kd [5] [nM] | Kd [6] [nM] | Kd [7] [nM] | Kd [8] [nM]
1 | calmodulin, wild type, Ca2+-free (apoCaM) (from UniProt P0DP23 1-149) (natural protein) | 60000 | – | – | – | – | – | – | –
2 | calmodulin mutant D21A/D23A/D25A/E32Q/D57A/D59A/N61A/E68Q (CaM12’), Ca2+ bound at EF3 and EF4 (from UniProt P0DP23 1-149) (natural protein) | – | 8000 | 4000 | 32 | 26 | 60 | < 100 | < 100
